Results taken from patent US20200325237A1 (AVIDITY BIOSCIENCES, published 2020).
Substitutions are numbered along the chain they refer to.

Experiments:
[1] = molecular target: T1, recombinant human transferrin receptor protein (Sino Biological 11020-H07H) (human, UniProt P02786 89-760); assay: ELISA on plate-coated recombinant human TfR1 (CD71); fit: specific binding with Hill slope
T1 construct: Bought protein coated on ELISA plates; also called recombinant human TfR1; human TfR1
Experimental: (§1) Half-well high-binding 96-well plates (Costar #3690) were coated with recombinant human transferrin receptor protein (Sino Biological 11020-H07H) or recombinant cyno transferrin receptor protein (Sino Biological 90253-C07H) at 1 ng/μL in PBS (Gibco 14190) and incubated overnight at 4° C. Plates were washed four times with 100 μL of Tris buffered saline+Tween (20×TBST, Cell Signaling 9997S). 100 μL of Superblock (ThermoFisher PI-37535) was added to each well and incubated for 1 hour at room temperature. The wash step was repeated before the addition of the samples. Samples were added at concentrations up to 10 nM, 50 μL/well. Plates were incubated for another hour at room temp and wash step repeated. Secondary antibody (Peroxidase AffiniPure Goat Anti-Human IgG, Fcγ Fragment Specific, Jackson Immunoresearch, 109-035-098) was diluted 1:5000 in Superblock and 50 μL/well added. Plates were incubated for 1 hour at room temperature and washed one more time. Binding was measured by the addition of 50 μL of 1-Step™ Ultra TMB-ELISA (ThermoFisher, 34028), incubated for 5 minutes, and the reaction was stopped with the addition of 25 μL of Stop Solution 2N sulfuric Acid (R&D Systems DY994). Absorbance was measured at 450 nm, with reference wavelength 570 nm subtracted. Binding constants were determined using GraphPad Prism Specific Binding with Hill Slope.

[2] = molecular target: T2, hTfR (human transferrin receptor, source and construct not stated) (human, UniProt P02786 89-760, limits assumed); assay: ELISA, biotinylated antibody on hTfR captured by plate-coated human holo-transferrin (Tf+TfR); fit: specific binding with Hill slope
Experimental: (§2) Antibodies were biotinylated using 50 fold molar excess of EZ-Link No weigh NHS-Biotin (Thermo Scientific A39256) following manufacturer's instructions. Half-well high-bind plates (Costar #3690) were coated with 500 ng/mL purified human holo-transferrin (R&D Systems 2914-HT) in PBS at 4° C. overnight. For comparison, plates were coated directly with hTfR. Plates were washed four times with 100 μL of Tris buffered saline+Tween (20×TBST, Cell Signaling 9997S). 100 μL of Superblock (ThermoFisher PI-37535) was added to each well and incubated for 1 hour at room temperature. The wash step was repeated before the addition of the hTfR (200 ng/mL in 25 μl) to the transferrin plates, or Superblock to the hTfR plates, and incubated for 30 minutes. Biotinylated antibodies were diluted to 20 nM for the high concentration and added to the plates with 3-fold serial dilution. 25 μl/well was added to the 25 μl already in the plate. Plates were incubated for 1 hour, and wash step was repeated. Streptavidin-HRP (R&D Systems DY998) was added following recommended dilution on the package insert, and a final wash step was done. Binding was measured by the addition of 50 μL of 1-Step™ Ultra TMB-ELISA (ThermoFisher, 34028), incubated for 5 minutes, and the reaction was stopped with the addition of 25 μL of Stop Solution 2N sulfuric Acid (R&D Systems DY994). Absorbance was measured at 450 nm, with reference wavelength 570 nm subtracted. Binding constants were determined using GraphPad Prism Specific Binding with Hill Slope. Change in antibody binding constants in the presence versus absense of transferrin is considered relative to the commercially available antibody which is known to have an overlapping epitope with transferrin (AF2474, R&D Systems).

[3] = molecular target: T3, TfR2 (transferrin receptor 2) (UniProt Q9UP52 105-801, limits assumed); assay: A450 plate assay on TfR2 (method not described in the text)
T3 sequence (looked up): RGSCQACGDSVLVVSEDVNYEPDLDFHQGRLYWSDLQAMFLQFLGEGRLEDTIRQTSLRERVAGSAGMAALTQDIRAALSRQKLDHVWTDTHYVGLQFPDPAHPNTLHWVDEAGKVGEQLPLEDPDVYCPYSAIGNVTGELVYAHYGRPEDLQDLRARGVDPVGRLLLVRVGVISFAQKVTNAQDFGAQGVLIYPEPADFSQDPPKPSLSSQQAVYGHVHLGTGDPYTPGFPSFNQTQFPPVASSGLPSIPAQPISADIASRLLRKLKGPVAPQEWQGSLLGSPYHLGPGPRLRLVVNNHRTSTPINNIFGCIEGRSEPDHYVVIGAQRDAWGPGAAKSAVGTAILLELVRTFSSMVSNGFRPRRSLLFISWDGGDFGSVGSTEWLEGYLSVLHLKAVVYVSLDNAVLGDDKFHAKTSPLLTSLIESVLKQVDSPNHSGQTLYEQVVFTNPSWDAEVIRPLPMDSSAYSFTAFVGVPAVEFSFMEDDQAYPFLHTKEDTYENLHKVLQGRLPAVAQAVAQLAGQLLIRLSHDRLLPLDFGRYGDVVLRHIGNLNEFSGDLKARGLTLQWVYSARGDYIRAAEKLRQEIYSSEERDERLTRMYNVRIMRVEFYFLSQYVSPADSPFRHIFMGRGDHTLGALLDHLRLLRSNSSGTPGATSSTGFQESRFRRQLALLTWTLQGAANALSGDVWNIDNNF

[4] = molecular target: T2, hTfR (human transferrin receptor, …); assay: ELISA; ratio of the Kd on transferrin-captured hTfR to the Kd on directly coated hTfR
Experimental: as §2

[5] = molecular target: T2, hTfR (human transferrin receptor, …); assay: ELISA, biotinylated antibody on hTfR captured by plate-coated HFE (HFE+TfR); fit: specific binding with Hill slope
[6] = molecular target: T2, hTfR (human transferrin receptor, …); assay: SPR (BioRad ProteOn XPR36), mAb captured on Protein A, hTfR as analyte, 25 C
Experimental: The binding kinetics of nine exemplary humanized anti-TfR antibodies and the parent chimeric antibody were characterized. Studies were run on a BioRad ProteOn XPR36 optical biosensor using a GLM sensor chip coated with Protein A for mAb capture. Running buffer included 10 mM EPES, 150 mM NaCl, pH 7.4 with 0.05 tween-20 with 0.2 mg/ml BSA. Data were collected at 25 degrees C. All mAbs were diluted into running buffer to 2 ug/ml based on the stock concentration provided. Each was then captured for 40 seconds over a Protein A surface.
hTfR (100 ug) was dissolved into […] of water to yield a 4.3 uM stock concentration. hTfR was dilted to 43 nM as the highest concentration and tested in a 3 fold dilution series. hTfR was injected at 200 ul/min for 2 minutes followed by a one-hour dissociation phase.

[7] = molecular target: T2, hTfR (human transferrin receptor, …); assay: ELISA; ratio of the Kd on HFE-captured hTfR to the Kd on directly coated hTfR
[8] = molecular target: T4, recombinant cyno transferrin receptor protein (Sino Biological 90253-C07H) (cyno, UniProt H9EXL1 89-760 (rhesus entry)); assay: ELISA on plate-coated recombinant cyno TfR1 (CD71); fit: specific binding with Hill slope
T4 construct: Bought protein coated on ELISA plates; also called recombinant cyno TfR1; cynoTfR1
Experimental: as §1

[9] = molecular target: T1, recombinant human transferrin receptor …; assay: ELISA on plate-coated recombinant human TfR1 (CD71); fit: specific binding with Hill slope (row labels blank in the lower block; row taken by the order Bmax, h, Kd)
Experimental: as §1

T4 sequence (chain, as listed by the source C07H C07H): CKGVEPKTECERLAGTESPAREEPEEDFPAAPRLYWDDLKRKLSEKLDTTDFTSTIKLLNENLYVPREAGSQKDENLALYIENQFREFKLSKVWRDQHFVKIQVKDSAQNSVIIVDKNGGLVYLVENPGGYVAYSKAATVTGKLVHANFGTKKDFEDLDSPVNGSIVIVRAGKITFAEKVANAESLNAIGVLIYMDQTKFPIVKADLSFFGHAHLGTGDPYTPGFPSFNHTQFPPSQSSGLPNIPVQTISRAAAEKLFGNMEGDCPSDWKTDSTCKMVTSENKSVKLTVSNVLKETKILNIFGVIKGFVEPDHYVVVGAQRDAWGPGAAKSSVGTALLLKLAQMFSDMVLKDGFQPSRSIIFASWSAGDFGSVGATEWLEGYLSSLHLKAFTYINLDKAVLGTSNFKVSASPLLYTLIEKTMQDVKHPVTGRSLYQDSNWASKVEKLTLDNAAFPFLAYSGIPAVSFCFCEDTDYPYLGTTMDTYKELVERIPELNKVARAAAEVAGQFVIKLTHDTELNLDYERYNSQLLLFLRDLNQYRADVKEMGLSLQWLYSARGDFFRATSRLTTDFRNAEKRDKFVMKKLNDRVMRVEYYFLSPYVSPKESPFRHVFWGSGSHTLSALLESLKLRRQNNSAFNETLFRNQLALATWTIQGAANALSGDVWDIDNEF
T2 sequence (P02786 89-760 limits assumed): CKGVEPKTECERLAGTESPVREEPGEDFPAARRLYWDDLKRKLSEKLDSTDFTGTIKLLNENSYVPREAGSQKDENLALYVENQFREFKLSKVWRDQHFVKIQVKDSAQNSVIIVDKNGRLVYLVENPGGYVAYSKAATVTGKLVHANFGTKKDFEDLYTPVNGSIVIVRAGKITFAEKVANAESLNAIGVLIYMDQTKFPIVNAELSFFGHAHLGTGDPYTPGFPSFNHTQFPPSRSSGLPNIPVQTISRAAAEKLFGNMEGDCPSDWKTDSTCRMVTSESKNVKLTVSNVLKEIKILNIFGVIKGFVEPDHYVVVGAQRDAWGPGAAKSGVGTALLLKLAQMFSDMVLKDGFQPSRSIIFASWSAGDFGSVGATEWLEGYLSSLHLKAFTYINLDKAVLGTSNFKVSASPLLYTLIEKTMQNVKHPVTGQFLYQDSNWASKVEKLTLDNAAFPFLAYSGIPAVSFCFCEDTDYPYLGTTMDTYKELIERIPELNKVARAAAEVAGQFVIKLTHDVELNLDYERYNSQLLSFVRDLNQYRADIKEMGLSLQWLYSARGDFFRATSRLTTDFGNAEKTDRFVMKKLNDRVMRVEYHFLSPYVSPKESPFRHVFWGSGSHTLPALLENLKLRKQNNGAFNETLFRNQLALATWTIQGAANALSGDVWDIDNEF
T1 sequence (P02786 89-760 limits assumed): as above

B1: 13E4-Variant 2i (antibody, human IgG1, kappa, L234A L235A)
heavy: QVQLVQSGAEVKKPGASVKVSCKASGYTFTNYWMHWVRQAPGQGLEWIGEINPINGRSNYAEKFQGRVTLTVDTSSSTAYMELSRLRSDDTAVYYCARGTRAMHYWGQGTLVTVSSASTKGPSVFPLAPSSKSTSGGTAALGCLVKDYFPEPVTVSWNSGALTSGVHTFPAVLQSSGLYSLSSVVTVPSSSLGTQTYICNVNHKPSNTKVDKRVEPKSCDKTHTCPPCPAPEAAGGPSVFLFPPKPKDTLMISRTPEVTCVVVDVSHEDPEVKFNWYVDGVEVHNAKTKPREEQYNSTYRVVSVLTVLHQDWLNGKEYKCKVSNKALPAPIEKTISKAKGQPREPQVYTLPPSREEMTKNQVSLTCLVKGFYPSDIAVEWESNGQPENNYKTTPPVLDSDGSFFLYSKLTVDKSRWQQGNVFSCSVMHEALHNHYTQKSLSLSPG
light: DIQMTQSPSSLSASVGDRVTITCRTSENIYNNLAWYQQKPGKSPKLLIYAATNLADGVPSRFSGSGSGTDYTLTISSLQPEDFATYYCQHFWGTPLTFGGGTKVEIKRTVAAPSVFIFPPSDEQLKSGTASVVCLLNNFYPREAKVQWKVDNALQSGNSQESVTEQDSKDSTYSLSSTLTLSKADYEKHKVYACEVTHQGLSSPVTKSFNRGEC
notes: Humanized hIgG1 with Fc mutations; also called hIgG1 TfR-Var2i
Work on B1 yielded a Bmax [1] of 94.2 % max binding, a Kd [1] of 8.18 pM and a h [1] of 1.35. It also gave a Bmax [2] of 3.48 A450, a Kd [2] of 0.0678 nM and a h [2] of 1.49. The binding result [3] was “no binding (tested: 1000 nM)”, the “Kd(Tf+TfR)/Kd(TfR)” value [4] was 2.8 and the Bmax [5] was 3 A450. It also gave a Kd [5] of 0.273 nM, a h [5] of 1.63 and a Kd [6] of 0.43 pM. The koff [6] was 3.9e-07 s⁻¹, the kon [6] was 913000 M⁻¹ s⁻¹ and the “Kd(HFE+TfR)/Kd(TfR)” value [7] was 11.1. The Bmax [8] was 93.1 % max binding, the Kd [8] was 0.012 nM and the h [8] was 1.56.

B2: 13E4-Variant 9i (antibody, human IgG1, kappa, L234A L235A)
heavy: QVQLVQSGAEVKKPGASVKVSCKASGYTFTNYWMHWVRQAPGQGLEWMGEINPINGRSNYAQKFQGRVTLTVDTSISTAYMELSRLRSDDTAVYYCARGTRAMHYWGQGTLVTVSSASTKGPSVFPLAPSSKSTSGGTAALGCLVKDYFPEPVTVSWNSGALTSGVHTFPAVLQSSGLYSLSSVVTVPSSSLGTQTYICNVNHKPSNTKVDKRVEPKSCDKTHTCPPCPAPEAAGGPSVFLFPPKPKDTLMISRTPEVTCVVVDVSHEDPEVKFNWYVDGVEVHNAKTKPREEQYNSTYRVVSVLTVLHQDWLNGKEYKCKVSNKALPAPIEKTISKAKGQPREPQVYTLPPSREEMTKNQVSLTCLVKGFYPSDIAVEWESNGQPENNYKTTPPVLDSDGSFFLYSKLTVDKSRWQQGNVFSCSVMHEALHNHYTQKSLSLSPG
light: B1 light with S43A, D56E
notes: Humanized hIgG1 with Fc mutations; also called hIgG1 TfR-Var9i
With B2 the Bmax [1] was 95.7 % max binding, the Kd [1] was 9.73 pM and the h [1] was 1.22. It also gave a Bmax [2] of 3.53 A450, a Kd [2] of 0.0559 nM and a h [2] of 1.45. The binding result [3] was “no binding (tested: 1000 nM)”, the “Kd(Tf+TfR)/Kd(TfR)” value [4] was 2.2 and the Bmax [5] was 2.79 A450. It also gave a Kd [5] of 0.341 nM, a h [5] of 1.37 and a Kd [6] of 1.21 pM. The koff [6] was 1.02e-06 s⁻¹, the kon [6] was 843000 M⁻¹ s⁻¹ and the “Kd(HFE+TfR)/Kd(TfR)” value [7] was 13.6. It also gave a Bmax [8] of 95 % max binding, a Kd [8] of 0.011 nM and a h [8] of 1.51.

B3: 13E4-Variant 9ii (antibody, human IgG1, kappa, L234A L235A)
heavy: QVQLVQSGAEVKKPGASVKVSCKASGYTFTNYWMHWVRQAPGQGLEWMGEINPINGRSNYAQKFQGRVTLTVDTSISTAYMELSRLRSDDTAVYYCARGTRAMHYWGQGTLVTVSSASTKGPSVFPLAPSSKSTSGGTAALGCLVKDYFPEPVTVSWNSGALTSGVHTFPAVLQSSGLYSLSSVVTVPSSSLGTQTYICNVNHKPSNTKVDKRVEPKSCDKTHTCPPCPAPEAAGGPSVFLFPPKPKDTLMISRTPEVTCVVVDVSHEDPEVKFNWYVDGVEVHNAKTKPREEQYNSTYRVVSVLTVLHQDWLNGKEYKCGVSNKALPAPIEKTISKAKGQPREPQVYTLPPSREEMTKNQVSLTCLVKGFYPSDIAVEWESNGQPENNYKTTPPVLDSDGSFFLYSKLTVDKSRWQQGNVFSCSVMHEALHNHYTQKSLSLSPG
light: B1 light with S43A, D56E
notes: Humanized hIgG1 with Fc mutations; also called hIgG1 TfR-Var9ii
With B3 the Bmax [2] was 3.51 A450, the Kd [2] was 0.057 nM and the h [2] was 1.48. The binding result [3] was “no binding (tested: 1000 nM)”, the “Kd(Tf+TfR)/Kd(TfR)” value [4] was 2.6 and the Bmax [5] was 3 A450. The Kd [5] was 0.229 nM, the h [5] was 1.36 and the Kd [6] was 2.31 pM. The koff [6] was 1.81e-06 s⁻¹, the kon [6] was 784000 M⁻¹ s⁻¹ and the “Kd(HFE+TfR)/Kd(TfR)” value [7] was 10.4. It also gave a Bmax [9] of 95.2 % max binding, a Kd [9] of 8.23 pM and a h [9] of 1.57. For the same binder, the Bmax [8] was 94.3 % max binding, the Kd [8] was 0.0114 nM and the h [8] was 1.74.

B4: 13E4-Variant 2ii (antibody, human IgG1, kappa, L234A L235A)
heavy: B3 heavy with M48I, Q62E, I76S
light: B1 light
notes: Humanized hIgG1 with Fc mutations; also called hIgG1 TfR-Var2ii
Work on B4 yielded a Bmax [1] of 92.9 % max binding, a Kd [1] of 9.64 pM and a h [1] of 1.43. The Bmax [2] was 3.53 A450, the Kd [2] was 0.0578 nM and the h [2] was 1.45. For the same binder, the binding result [3] was “no binding (tested: 1000 nM)”, the “Kd(Tf+TfR)/Kd(TfR)” value [4] was 2.5 and the Bmax [5] was 3.15 A450. The Kd [5] was 0.227 nM, the h [5] was 1.64 and the Kd [6] was 0.49 pM. For the same binder, the koff [6] was 4.3e-07 s⁻¹, the kon [6] was 880000 M⁻¹ s⁻¹ and the “Kd(HFE+TfR)/Kd(TfR)” value [7] was 9.9. The Bmax [8] was 94.2 % max binding, the Kd [8] was 0.0127 nM and the h [8] was 1.58.

B5: 13E4-Variant 2iii (antibody, human IgG1, kappa, L234A L235A)
heavy: B3 heavy with M48I, Q62E, I76S, G321K, L327R
light: B1 light
notes: Humanized hIgG1 with Fc mutations; also called hIgG1 TfR-Var2iii
B5 was tested, and the Bmax [1] was 95 % max binding, the Kd [1] was 9.58 pM and the h [1] was 1.2. The Bmax [2] was 3.47 A450, the Kd [2] was 0.0522 nM and the h [2] was 1.61. The binding result [3] was “no binding (tested: 1000 nM)”, the “Kd(Tf+TfR)/Kd(TfR)” value [4] was 2.1 and the Bmax [5] was 2.66 A450. The Kd [5] was 0.289 nM, the h [5] was 1.26 and the Kd [6] was 0.95 pM. The koff [6] was 8.2e-07 s⁻¹, the kon [6] was 862000 M⁻¹ s⁻¹ and the “Kd(HFE+TfR)/Kd(TfR)” value [7] was 11.9. The Bmax [8] was 94.3 % max binding, the Kd [8] was 0.0092 nM and the h [8] was 1.35.
